Data from patent publication US20220175946A1 (MAGENTA THERAPEUTICS, published 2022).
Where a chain is given by its changes, count along the chain named.

B1: Antibody 58 (Ab58) (antibody, V domains shown)
VH: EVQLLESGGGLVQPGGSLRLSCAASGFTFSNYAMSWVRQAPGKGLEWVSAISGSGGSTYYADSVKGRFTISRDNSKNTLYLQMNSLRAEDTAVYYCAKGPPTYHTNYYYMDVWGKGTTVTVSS
VL: DIQMTQSPSSVSASVGDRVTITCRASQGISSWLAWYQQKPGKAPKLLIYAASSLQSGVPSRFSGSGSGTDFTLTISSLQPEDFATYYCQQTNSFPYTFGGGTKVEIKR
B2: Antibody 61 (Ab61) (antibody, V domains shown)
VH: EVQLLESGGGLVQPGGSLRLSCAASGFTFSSYVMIWVRQAPGKGLEWVSSISGDSVTTYYADSVKGRFTISRDNSKNTLYLQMNSLRAEDTAVYYCAKGPPTYHTNYYYMDVWGKGTTVTVSS
VL: B1 VL
B3: Antibody 56 (Ab56) (antibody, V domains shown)
VH: QVQLVQSGAEVKKPGSSVKVSCKASGGTFSLYAISWVRQAPGQGLEWMGGIIPAFGTANYAQKFQGRVTITADESTSTAYMELSSLRSEDTAVYYCARGGLDTDEFDLWGRGTLVTVSS
VL: DIQMTQSPSSLSASVGDRVTITCRASQSINSYLNWYQQKPGKAPKLLIYAASSLQSGVPSRFSGSGSGTDFTLTISSLQPEDFATYYCQQGVSDITFGGGTKVEIKR
B4: Antibody 55 (Ab55) (antibody, V domains shown)
VH: B3 VH with S30R, L31I, A54D, T57V
VL: B3 VL
B5: Antibody 54 (Ab54) (antibody, V domains shown)
VH: B3 VH with L31S, A54I
VL: B3 VL
B6: Antibody 57 (Ab57) (antibody, V domains shown)
VH: B3 VH with A54H, T57L
VL: B3 VL
B7: Antibody 67 (Ab67) (antibody, V domains shown)
VH: EVQLVESGGGLVQPGGSLRLSCAASGFTFSDADMDWVRQAPGKGLEWVGRTRNKAGSYTTEYAASVKGRFTISRDDSKNSLYLQMNSLKTEDTAVYYCAREPKYWIDFDLWGRGTLVTVSS
VL: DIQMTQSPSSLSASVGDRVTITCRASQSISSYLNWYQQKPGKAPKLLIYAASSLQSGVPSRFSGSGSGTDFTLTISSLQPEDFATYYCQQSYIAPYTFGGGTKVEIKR
B8: Antibody 66 (Ab66) (antibody, V domains shown)
VH: B7 VH with A32H, D33Y, G56S
VL: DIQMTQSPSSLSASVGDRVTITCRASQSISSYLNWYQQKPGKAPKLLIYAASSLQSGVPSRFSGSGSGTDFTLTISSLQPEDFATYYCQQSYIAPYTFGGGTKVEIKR
B9: Antibody 68 (Ab68) (antibody, V domains shown)
VH: B7 VH with G16R, A23T, A32H, D35N, K54A
VL: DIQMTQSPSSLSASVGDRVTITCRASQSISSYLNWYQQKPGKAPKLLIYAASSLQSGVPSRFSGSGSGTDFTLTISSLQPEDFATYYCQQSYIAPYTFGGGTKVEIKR
B10: Antibody 69 (Ab69) (antibody, V domains shown)
VH: B7 VH with S30V, A32H, A55L
VL: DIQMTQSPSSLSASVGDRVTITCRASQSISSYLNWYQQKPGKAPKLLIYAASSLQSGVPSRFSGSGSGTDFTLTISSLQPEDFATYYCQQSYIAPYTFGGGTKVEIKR
B11: CK6 (antibody, V domains shown)
VH: QVQLVQSGAAVKKPGESLKISCKGSGYRFTSYWIGWVRQMPGKGLEWMGIIYPGDSDTRYSPSFQGQVTISAGKSISTAYLQWSSLKASDTAMYYCARHGRGYNGYEGAFDIWGQGTMVTVSS
VL: AIQLTQSPSSLSASVGDRVTITCRASQGISSALAWYQQKPGKAPKLLIYDASSLESGVPSRFSGSGSGTDFTLTISSLQPEDFATYYCQQFNSYPLTFGGGTKVEIK

What follows are binders tested against Human CD117 as expressed on cells (Kasumi-1 cells; primary human CD34+ bone marrow cells) (human, UniProt P10721 26-976) (assay: cell-based or functional assay).
Human CD117 as expressed on cells (Kasumi-1 cells; primary human CD34+ bone marrow cells), sequence (P10721 26-976 limits assumed): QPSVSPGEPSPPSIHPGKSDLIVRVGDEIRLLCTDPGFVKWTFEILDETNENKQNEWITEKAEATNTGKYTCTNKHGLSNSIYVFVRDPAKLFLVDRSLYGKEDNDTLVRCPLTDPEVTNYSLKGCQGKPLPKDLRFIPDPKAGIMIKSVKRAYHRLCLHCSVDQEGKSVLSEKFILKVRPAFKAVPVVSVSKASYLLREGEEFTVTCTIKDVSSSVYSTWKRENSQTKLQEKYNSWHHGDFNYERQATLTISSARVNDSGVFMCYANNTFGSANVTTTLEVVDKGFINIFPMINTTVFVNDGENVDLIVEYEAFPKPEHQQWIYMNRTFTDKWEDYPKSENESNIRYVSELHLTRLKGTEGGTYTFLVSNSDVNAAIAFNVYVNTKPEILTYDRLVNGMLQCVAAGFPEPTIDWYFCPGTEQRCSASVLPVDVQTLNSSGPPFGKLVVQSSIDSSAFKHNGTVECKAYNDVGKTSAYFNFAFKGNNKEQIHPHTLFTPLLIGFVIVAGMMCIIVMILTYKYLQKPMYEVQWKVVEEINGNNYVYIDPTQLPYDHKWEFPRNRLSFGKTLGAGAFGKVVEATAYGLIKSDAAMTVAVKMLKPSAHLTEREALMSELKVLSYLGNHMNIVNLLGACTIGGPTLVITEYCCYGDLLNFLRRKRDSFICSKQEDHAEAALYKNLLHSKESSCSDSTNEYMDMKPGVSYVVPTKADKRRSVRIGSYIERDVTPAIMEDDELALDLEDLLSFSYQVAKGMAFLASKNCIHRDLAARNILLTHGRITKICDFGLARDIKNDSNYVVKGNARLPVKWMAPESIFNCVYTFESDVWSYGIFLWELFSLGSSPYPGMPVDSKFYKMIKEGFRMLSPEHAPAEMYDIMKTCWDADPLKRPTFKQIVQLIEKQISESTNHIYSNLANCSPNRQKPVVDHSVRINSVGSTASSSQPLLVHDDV

Row | Binder | AUC Kasumi-1 Killing (AUC hIgG1 - AUC MAC ID#)
1 | B1 | 97400
2 | B2 | 78600
3 | B3 | 193000
4 | B4 | 226000
5 | B5 | 155000
6 | B6 | 157000
7 | B7 | 156000
8 | B8 | 135000
9 | B9 | 14400
10 | B10 | 40000
11 | B11 | 132000
